Experimental findings from patent US20200087373A1 (UNIVERSITY OF COPENHAGEN, published 2020) are described below.

The target in this test is T1, human GIP receptor (human, UniProt P48546 22-466).
T1 sequence (looked up): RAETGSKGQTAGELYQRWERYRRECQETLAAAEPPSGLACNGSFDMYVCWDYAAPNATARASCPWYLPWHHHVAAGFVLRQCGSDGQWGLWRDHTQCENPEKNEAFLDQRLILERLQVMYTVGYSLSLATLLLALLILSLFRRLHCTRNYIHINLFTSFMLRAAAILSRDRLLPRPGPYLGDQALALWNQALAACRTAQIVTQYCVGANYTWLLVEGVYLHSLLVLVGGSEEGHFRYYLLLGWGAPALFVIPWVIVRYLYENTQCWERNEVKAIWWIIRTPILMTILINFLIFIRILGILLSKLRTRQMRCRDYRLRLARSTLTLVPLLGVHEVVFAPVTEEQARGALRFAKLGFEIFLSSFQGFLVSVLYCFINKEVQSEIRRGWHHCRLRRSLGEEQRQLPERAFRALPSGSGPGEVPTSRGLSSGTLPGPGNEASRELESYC
Briefly: cell-based or functional assay.

Ends that are not written are not given here. * marks the point of attachment. C16 diacid = O=C(O)CCCCCCCCCCCCCCC(=O)*; C12 diacid = O=C(O)CCCCCCCCCCC(=O)*; Palmitoyl = CCCCCCCCCCCCCCCC(=O)*; Lauroyl = CCCCCCCCCCCC(=O)*

B1: AT158 [hGIP(3-30)NH2[H18K]-C16diacid/18] (peptide)
peptide: EGTFISDYSIAMDKIK(C16 diacid)QQDFVNWLLAQK-NH2
modifications: N-terminus assumed
SMILES: CC[C@H](C)[C@H](NC(=O)[C@H](CO)NC(=O)[C@H](Cc1ccc(O)cc1)NC(=O)[C@H](CC(=O)O)NC(=O)[C@H](CO)NC(=O)[C@@H](NC(=O)[C@H](Cc1ccccc1)NC(=O)[C@@H](NC(=O)CNC(=O)[C@@H](N)CCC(=O)O)[C@@H](C)O)[C@@H](C)CC)C(=O)N[C@@H](C)C(=O)N[C@@H](CCSC)C(=O)N[C@@H](CC(=O)O)C(=O)N[C@@H](CCCCN)C(=O)N[C@H](C(=O)N[C@@H](CCCCNC(=O)CCCCCCCCCCCCCCC(=O)O)C(=O)N[C@@H](CCC(N)=O)C(=O)N[C@@H](CCC(N)=O)C(=O)N[C@@H](CC(=O)O)C(=O)N[C@@H](Cc1ccccc1)C(=O)N[C@H](C(=O)N[C@@H](CC(N)=O)C(=O)N[C@@H](Cc1c[nH]c2ccccc12)C(=O)N[C@@H](CC(C)C)C(=O)N[C@@H](CC(C)C)C(=O)N[C@@H](C)C(=O)N[C@@H](CCC(N)=O)C(=O)N[C@@H](CCCCN)C(N)=O)C(C)C)[C@@H](C)CC
Consider B1, for which the “cAMP agonism, EC50 (log)” value is -8.5 log M; the “cAMP agonism, Emax” value worked out at 6%; the “cAMP agonism, nM (EC50)” value was found to be 3.1 nM; the “cAMP antagonism, log (IC50)” value was -8.3 log M. Also, the “cAMP antagonism, nM (IC50)” value is 5 nM.

B2: AT131 [hGIP(3-30)NH2[D15E; H18A]-C16/16] (peptide)
peptide: EGTFISDYSIAMEK(Palmitoyl)IAQQDFVNWLLAQK-NH2
modifications: N-terminus assumed
SMILES: CCCCCCCCCCCCCCCC(=O)NCCCC[C@H](NC(=O)[C@H](CCC(=O)O)NC(=O)[C@H](CCSC)NC(=O)[C@H](C)NC(=O)[C@@H](NC(=O)[C@H](CO)NC(=O)[C@H](Cc1ccc(O)cc1)NC(=O)[C@H](CC(=O)O)NC(=O)[C@H](CO)NC(=O)[C@@H](NC(=O)[C@H](Cc1ccccc1)NC(=O)[C@@H](NC(=O)CNC(=O)[C@@H](N)CCC(=O)O)[C@@H](C)O)[C@@H](C)CC)[C@@H](C)CC)C(=O)N[C@H](C(=O)N[C@@H](C)C(=O)N[C@@H](CCC(N)=O)C(=O)N[C@@H](CCC(N)=O)C(=O)N[C@@H](CC(=O)O)C(=O)N[C@@H](Cc1ccccc1)C(=O)N[C@H](C(=O)N[C@@H](CC(N)=O)C(=O)N[C@@H](Cc1c[nH]c2ccccc12)C(=O)N[C@@H](CC(C)C)C(=O)N[C@@H](CC(C)C)C(=O)N[C@@H](C)C(=O)N[C@@H](CCC(N)=O)C(=O)N[C@@H](CCCCN)C(N)=O)C(C)C)[C@@H](C)CC
On to B2, for which the “cAMP agonism, EC50 (log)” value is -4.9 log M; the “cAMP agonism, Emax” value came out at 35%; the “cAMP agonism, nM (EC50)” value came out at 11800 nM; the “cAMP antagonism, log (IC50)” value was -7.4 log M. Further, the “cAMP antagonism, nM (IC50)” value came to 65 nM.

For the molecule EGTFISDYSIAMDK(Lauroyl)IHQQDFVNWLLAQK-NH2 [AT154 [hGIP(3-30)NH2-C12/16]], the “cAMP agonism, Emax” value worked out at 0%; the “cAMP antagonism, log (IC50)” value was -7.2 log M; the “cAMP antagonism, nM (IC50)” value stood at 63 nM.

B3: AT143 [hGIP(3-30)NH2[M14L; H18K]-C16/18] (peptide)
peptide: EGTFISDYSIALDKIK(Palmitoyl)QQDFVNWLLAQK-NH2
modifications: N-terminus assumed
SMILES: CCCCCCCCCCCCCCCC(=O)NCCCC[C@H](NC(=O)[C@@H](NC(=O)[C@H](CCCCN)NC(=O)[C@H](CC(=O)O)NC(=O)[C@H](CC(C)C)NC(=O)[C@H](C)NC(=O)[C@@H](NC(=O)[C@H](CO)NC(=O)[C@H](Cc1ccc(O)cc1)NC(=O)[C@H](CC(=O)O)NC(=O)[C@H](CO)NC(=O)[C@@H](NC(=O)[C@H](Cc1ccccc1)NC(=O)[C@@H](NC(=O)CNC(=O)[C@@H](N)CCC(=O)O)[C@@H](C)O)[C@@H](C)CC)[C@@H](C)CC)[C@@H](C)CC)C(=O)N[C@@H](CCC(N)=O)C(=O)N[C@@H](CCC(N)=O)C(=O)N[C@@H](CC(=O)O)C(=O)N[C@@H](Cc1ccccc1)C(=O)N[C@H](C(=O)N[C@@H](CC(N)=O)C(=O)N[C@@H](Cc1c[nH]c2ccccc12)C(=O)N[C@@H](CC(C)C)C(=O)N[C@@H](CC(C)C)C(=O)N[C@@H](C)C(=O)N[C@@H](CCC(N)=O)C(=O)N[C@@H](CCCCN)C(N)=O)C(C)C
Turning to B3, the “cAMP agonism, EC50 (log)” value is -6.3 log M; the “cAMP agonism, Emax” value is 40%; the “cAMP agonism, nM (EC50)” value came to 521 nM; the “cAMP antagonism, log (IC50)” value is -7.8 log M. Also, the “cAMP antagonism, nM (IC50)” value is 15.1 nM.

B4: AT153 [hGIP(3-30)NH2[H18R; K30R]-C12/16] (peptide)
peptide: EGTFISDYSIAMDK(Lauroyl)IRQQDFVNWLLAQR-NH2
modifications: N-terminus assumed
SMILES: CCCCCCCCCCCC(=O)NCCCC[C@H](NC(=O)[C@H](CC(=O)O)NC(=O)[C@H](CCSC)NC(=O)[C@H](C)NC(=O)[C@@H](NC(=O)[C@H](CO)NC(=O)[C@H](Cc1ccc(O)cc1)NC(=O)[C@H](CC(=O)O)NC(=O)[C@H](CO)NC(=O)[C@@H](NC(=O)[C@H](Cc1ccccc1)NC(=O)[C@@H](NC(=O)CNC(=O)[C@@H](N)CCC(=O)O)[C@@H](C)O)[C@@H](C)CC)[C@@H](C)CC)C(=O)N[C@H](C(=O)N[C@@H](CCCNC(=N)N)C(=O)N[C@@H](CCC(N)=O)C(=O)N[C@@H](CCC(N)=O)C(=O)N[C@@H](CC(=O)O)C(=O)N[C@@H](Cc1ccccc1)C(=O)N[C@H](C(=O)N[C@@H](CC(N)=O)C(=O)N[C@@H](Cc1c[nH]c2ccccc12)C(=O)N[C@@H](CC(C)C)C(=O)N[C@@H](CC(C)C)C(=O)N[C@@H](C)C(=O)N[C@@H](CCC(N)=O)C(=O)N[C@@H](CCCNC(=N)N)C(N)=O)C(C)C)[C@@H](C)CC
Turning to B4, the “cAMP agonism, Emax” value is 0%; the “cAMP antagonism, log (IC50)” value was -6.7 log M; the “cAMP antagonism, nM (IC50)” value is 187 nM.

Consider Lauroyl-EGTFISDYSIAMDKIHQQDFVNWLLAQK-NH2 [AT148 [hGIP(3-30)NH2-C12/3]], for which the “cAMP agonism, EC50 (log)” value is -7.9 log M; the “cAMP agonism, Emax” value is 43%; the “cAMP agonism, nM (EC50)” value came to 13 nM.

B5: AT144 [hGIP(3-30)NH2[K16R; H18K; K30R]-C16/18] (peptide)
peptide: EGTFISDYSIAMDRIK(Palmitoyl)QQDFVNWLLAQR-NH2
modifications: N-terminus assumed
SMILES: CCCCCCCCCCCCCCCC(=O)NCCCC[C@H](NC(=O)[C@@H](NC(=O)[C@H](CCCNC(=N)N)NC(=O)[C@H](CC(=O)O)NC(=O)[C@H](CCSC)NC(=O)[C@H](C)NC(=O)[C@@H](NC(=O)[C@H](CO)NC(=O)[C@H](Cc1ccc(O)cc1)NC(=O)[C@H](CC(=O)O)NC(=O)[C@H](CO)NC(=O)[C@@H](NC(=O)[C@H](Cc1ccccc1)NC(=O)[C@@H](NC(=O)CNC(=O)[C@@H](N)CCC(=O)O)[C@@H](C)O)[C@@H](C)CC)[C@@H](C)CC)[C@@H](C)CC)C(=O)N[C@@H](CCC(N)=O)C(=O)N[C@@H](CCC(N)=O)C(=O)N[C@@H](CC(=O)O)C(=O)N[C@@H](Cc1ccccc1)C(=O)N[C@H](C(=O)N[C@@H](CC(N)=O)C(=O)N[C@@H](Cc1c[nH]c2ccccc12)C(=O)N[C@@H](CC(C)C)C(=O)N[C@@H](CC(C)C)C(=O)N[C@@H](C)C(=O)N[C@@H](CCC(N)=O)C(=O)N[C@@H](CCCNC(=N)N)C(N)=O)C(C)C
Turning to B5, the “cAMP agonism, Emax” value turned out to be 0%; the “cAMP antagonism, log (IC50)” value is -7.3 log M; the “cAMP antagonism, nM (IC50)” value was 53.3 nM.

B6: AT159 [hGIP(3-30)NH2[K16R; H18K; K30R]-C16diacid/18] (peptide)
peptide: EGTFISDYSIAMDRIK(C16 diacid)QQDFVNWLLAQR-NH2
modifications: N-terminus assumed
SMILES: CC[C@H](C)[C@H](NC(=O)[C@H](CO)NC(=O)[C@H](Cc1ccc(O)cc1)NC(=O)[C@H](CC(=O)O)NC(=O)[C@H](CO)NC(=O)[C@@H](NC(=O)[C@H](Cc1ccccc1)NC(=O)[C@@H](NC(=O)CNC(=O)[C@@H](N)CCC(=O)O)[C@@H](C)O)[C@@H](C)CC)C(=O)N[C@@H](C)C(=O)N[C@@H](CCSC)C(=O)N[C@@H](CC(=O)O)C(=O)N[C@@H](CCCNC(=N)N)C(=O)N[C@H](C(=O)N[C@@H](CCCCNC(=O)CCCCCCCCCCCCCCC(=O)O)C(=O)N[C@@H](CCC(N)=O)C(=O)N[C@@H](CCC(N)=O)C(=O)N[C@@H](CC(=O)O)C(=O)N[C@@H](Cc1ccccc1)C(=O)N[C@H](C(=O)N[C@@H](CC(N)=O)C(=O)N[C@@H](Cc1c[nH]c2ccccc12)C(=O)N[C@@H](CC(C)C)C(=O)N[C@@H](CC(C)C)C(=O)N[C@@H](C)C(=O)N[C@@H](CCC(N)=O)C(=O)N[C@@H](CCCNC(=N)N)C(N)=O)C(C)C)[C@@H](C)CC
Regarding B6, the “cAMP agonism, EC50 (log)” value is -8.7 log M; the “cAMP agonism, Emax” value amounted to 6%; the “cAMP agonism, nM (EC50)” value worked out at 2 nM; the “cAMP antagonism, log (IC50)” value was -8.2 log M. Further, the “cAMP antagonism, nM (IC50)” value amounted to 6 nM.

B7: AT149 [hGIP(3-30)NH2[H18R; K30R]-C12diacid/3] (peptide)
peptide: {C12 diacid}-EGTFISDYSIAMDKIRQQDFVNWLLAQR-NH2
SMILES: CC[C@H](C)[C@H](NC(=O)[C@H](CO)NC(=O)[C@H](Cc1ccc(O)cc1)NC(=O)[C@H](CC(=O)O)NC(=O)[C@H](CO)NC(=O)[C@@H](NC(=O)[C@H](Cc1ccccc1)NC(=O)[C@@H](NC(=O)CNC(=O)[C@H](CCC(=O)O)NC(=O)CCCCCCCCCCC(=O)O)[C@@H](C)O)[C@@H](C)CC)C(=O)N[C@@H](C)C(=O)N[C@@H](CCSC)C(=O)N[C@@H](CC(=O)O)C(=O)N[C@@H](CCCCN)C(=O)N[C@H](C(=O)N[C@@H](CCCNC(=N)N)C(=O)N[C@@H](CCC(N)=O)C(=O)N[C@@H](CCC(N)=O)C(=O)N[C@@H](CC(=O)O)C(=O)N[C@@H](Cc1ccccc1)C(=O)N[C@H](C(=O)N[C@@H](CC(N)=O)C(=O)N[C@@H](Cc1c[nH]c2ccccc12)C(=O)N[C@@H](CC(C)C)C(=O)N[C@@H](CC(C)C)C(=O)N[C@@H](C)C(=O)N[C@@H](CCC(N)=O)C(=O)N[C@@H](CCCNC(=N)N)C(N)=O)C(C)C)[C@@H](C)CC
With B7, the “cAMP agonism, Emax” value amounted to 50%.
